Data as given in US20170174769A1.
“And” between values parts separate entries of the source, which are not always exact repeats. Equal entries are not always repeated.

Experiments:
[1] = molecular target: human KLB and human FGFR1c co-expressed on HEK293/hKLB/hFGFR1c/SRE-luc cells (human) (UniProt Q86Z14); assay: FACS on stable HEK293 cells
[2] = molecular target: full-length human KLB on HEK293/hKLB/SRE-luc cells (human) (UniProt Q86Z14); assay: FACS on stable HEK293 cells
[3] = molecular target: full-length human FGFR1c on HEK293/hFGFR1c/SRE-luc cells (human) (UniProt P11362); assay: FACS on stable HEK293 cells
[4] = molecular target: human KLB and human FGFR1c co-expressed on HEK293/hKLB/hFGFR1c/SRE-luc cells (human) (UniProt Q86Z14); assay: FACS on stable HEK293 cells, secondary antibody alone
[5] = molecular target: full-length human KLB on HEK293/hKLB/SRE-luc cells (human) (UniProt Q86Z14); assay: as above
[6] = molecular target: full-length human FGFR1c on HEK293/hFGFR1c/SRE-luc cells (human) (UniProt P11362); assay: as above
[7] = molecular target: full-length human FGFR1c on HEK293/hFGFR1c/SRE-luc cells (human) (UniProt P11362); assay: FACS on stable HEK293 cells, secondary antibody alone; row shifted one column to the left (c3 = 293/hFGFR1c)
[8] = molecular target: mouse KLB and mouse FGFR1c co-expressed on HEK293/mKLB/mFGFR1c/SRE-Luc cells (mouse); assay: FACS on stable HEK293 cells, secondary antibody alone; row shifted one column to the left (c5 = 293/mFGFR1c/mKLB)
[9] = molecular target: human KLB and human FGFR1c co-expressed on HEK293/hKLB/hFGFR1c/SRE-luc cells (human) (UniProt Q86Z14); assay: FACS on stable HEK293 cells, secondary antibody alone; row shifted one column to the left (c4 = 293/hFGFR1c/hKLB)
[10] = molecular target: cell-surface human FGFR1c alone (amino acids 1-731 of NP_075594) on HEK293/hFGFR1c/SRE-Luc cells of Example 19 (human) (UniProt P11362); assay: cell-based or functional assay
[11] = molecular target: full-length human FGFR1c on HEK293/hFGFR1c/SRE-luc cells (human) (UniProt P11362); assay: cell-based or functional assay

Sequence of full-length human FGFR1c on HEK293/hFGFR1c/SRE-luc cells (human) (P11362 other isoform, or with tags, fused parts or gaps limits assumed): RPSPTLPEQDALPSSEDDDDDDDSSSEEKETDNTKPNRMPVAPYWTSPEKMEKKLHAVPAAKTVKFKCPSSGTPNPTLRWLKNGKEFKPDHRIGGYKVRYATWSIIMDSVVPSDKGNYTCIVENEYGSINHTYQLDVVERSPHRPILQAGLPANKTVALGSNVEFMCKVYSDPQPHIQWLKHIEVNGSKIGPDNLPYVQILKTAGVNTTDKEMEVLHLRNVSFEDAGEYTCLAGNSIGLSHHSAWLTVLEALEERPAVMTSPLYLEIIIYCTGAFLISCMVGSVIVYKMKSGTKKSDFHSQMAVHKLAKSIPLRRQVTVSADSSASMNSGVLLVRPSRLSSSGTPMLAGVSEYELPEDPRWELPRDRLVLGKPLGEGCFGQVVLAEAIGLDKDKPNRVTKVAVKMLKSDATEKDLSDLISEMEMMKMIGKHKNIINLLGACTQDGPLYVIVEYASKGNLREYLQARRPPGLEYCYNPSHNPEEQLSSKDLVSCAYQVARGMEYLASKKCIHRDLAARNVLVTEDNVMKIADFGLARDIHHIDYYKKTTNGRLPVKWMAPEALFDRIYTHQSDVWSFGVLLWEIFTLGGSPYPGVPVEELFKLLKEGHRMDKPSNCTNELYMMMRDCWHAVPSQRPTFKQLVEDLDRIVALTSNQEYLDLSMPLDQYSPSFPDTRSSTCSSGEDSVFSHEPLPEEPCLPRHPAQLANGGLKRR
Sequence of full-length human KLB on HEK293/hKLB/SRE-luc cells (human) (Q86Z14 whole entry): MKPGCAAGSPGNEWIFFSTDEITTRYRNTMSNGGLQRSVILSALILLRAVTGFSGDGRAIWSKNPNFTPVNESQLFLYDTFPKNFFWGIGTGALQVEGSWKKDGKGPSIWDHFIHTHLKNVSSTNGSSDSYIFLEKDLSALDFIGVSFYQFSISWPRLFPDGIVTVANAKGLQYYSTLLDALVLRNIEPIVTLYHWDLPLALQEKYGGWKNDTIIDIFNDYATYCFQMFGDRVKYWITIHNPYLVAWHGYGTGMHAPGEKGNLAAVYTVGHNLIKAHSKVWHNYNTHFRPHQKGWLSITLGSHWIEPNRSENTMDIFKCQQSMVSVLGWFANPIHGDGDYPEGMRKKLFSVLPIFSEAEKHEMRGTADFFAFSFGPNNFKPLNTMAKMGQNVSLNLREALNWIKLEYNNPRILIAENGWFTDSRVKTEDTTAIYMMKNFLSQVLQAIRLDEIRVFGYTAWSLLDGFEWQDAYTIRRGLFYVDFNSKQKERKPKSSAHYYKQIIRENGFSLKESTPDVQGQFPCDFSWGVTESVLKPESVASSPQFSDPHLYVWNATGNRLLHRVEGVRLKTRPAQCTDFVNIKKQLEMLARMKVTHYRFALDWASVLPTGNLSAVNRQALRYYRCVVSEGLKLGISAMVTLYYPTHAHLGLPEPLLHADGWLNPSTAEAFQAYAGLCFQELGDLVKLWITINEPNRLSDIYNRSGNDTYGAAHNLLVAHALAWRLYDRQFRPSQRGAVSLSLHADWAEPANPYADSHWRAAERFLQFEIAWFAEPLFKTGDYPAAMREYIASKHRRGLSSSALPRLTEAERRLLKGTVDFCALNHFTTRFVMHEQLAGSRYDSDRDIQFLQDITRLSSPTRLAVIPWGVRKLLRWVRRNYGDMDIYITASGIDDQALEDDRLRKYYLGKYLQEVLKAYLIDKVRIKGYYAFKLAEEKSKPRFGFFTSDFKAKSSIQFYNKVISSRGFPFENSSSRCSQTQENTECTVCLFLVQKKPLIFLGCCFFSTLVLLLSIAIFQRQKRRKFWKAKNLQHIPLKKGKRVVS
Sequence of human KLB and human FGFR1c co-expressed on HEK293/hKLB/hFGFR1c/SRE-luc cells (human) (Q86Z14 whole entry, chain 1 of 2, the tested form may be a part): as the sequence (Q86Z14 whole entry) above
Sequence of human KLB and human FGFR1c co-expressed on HEK293/hKLB/hFGFR1c/SRE-luc cells (human) (chain, as listed by the source limits assumed, chain 2 of 2): as the sequence (P11362 other isoform, or with tags, fused parts or gaps limits assumed) above
Sequence of cell-surface human FGFR1c alone (amino acids 1-731 of NP_075594) on HEK293/hFGFR1c/SRE-Luc cells of Example 19 (human) (P11362 22-822): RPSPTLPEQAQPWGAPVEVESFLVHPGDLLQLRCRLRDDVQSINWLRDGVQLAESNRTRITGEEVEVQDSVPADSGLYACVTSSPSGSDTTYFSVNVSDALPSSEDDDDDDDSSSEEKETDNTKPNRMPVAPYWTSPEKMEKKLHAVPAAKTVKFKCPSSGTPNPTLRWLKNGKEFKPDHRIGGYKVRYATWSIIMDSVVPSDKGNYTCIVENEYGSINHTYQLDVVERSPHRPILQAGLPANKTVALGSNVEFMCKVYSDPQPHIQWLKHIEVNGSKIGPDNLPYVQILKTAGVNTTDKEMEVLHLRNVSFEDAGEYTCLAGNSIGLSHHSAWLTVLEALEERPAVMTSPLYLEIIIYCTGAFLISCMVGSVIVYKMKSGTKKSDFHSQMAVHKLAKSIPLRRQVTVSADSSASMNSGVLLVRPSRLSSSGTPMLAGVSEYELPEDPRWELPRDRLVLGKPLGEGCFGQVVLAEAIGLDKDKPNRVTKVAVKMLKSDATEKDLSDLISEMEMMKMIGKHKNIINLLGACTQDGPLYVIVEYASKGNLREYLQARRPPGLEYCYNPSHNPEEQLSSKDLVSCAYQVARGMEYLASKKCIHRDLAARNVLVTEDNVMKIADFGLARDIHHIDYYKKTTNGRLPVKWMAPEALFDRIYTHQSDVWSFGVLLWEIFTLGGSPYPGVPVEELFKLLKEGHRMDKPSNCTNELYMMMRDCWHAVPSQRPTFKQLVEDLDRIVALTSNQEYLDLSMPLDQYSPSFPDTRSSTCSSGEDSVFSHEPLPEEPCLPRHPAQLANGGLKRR

Row | binding ratio to unstained cells [1] [fold] | binding ratio to unstained cells [2] [fold] | binding ratio to unstained cells [3] [fold] | binding ratio to unstained cells [4] [fold] | binding ratio to unstained cells [5] [fold] | binding ratio to unstained cells [6] [fold] | Substance | further results
1 | 2 | 1 | 1 | – | – | – | Irrelevant IgG control 1 (antibody) | –
2 | – | – | – | 1 | 1 | 1 | Anti-Mouse IgG Secondary Antibody | –
3 | – | – | – | 1 | 2 | 1 | Anti-Human IgG Secondary Antibody | MFI Ratio to unstained cells [7]: 1 fold; MFI Ratio to unstained cells [8]: 1 fold; MFI Ratio to unstained cells [9]: 1 fold
4 | 2 | 2 | 2 | – | – | – | Irrelevant IgG control 2 (antibody) | –
5 | – | – | – | – | – | – | human FGF2 (hFGF2; R&D Systems, #233-FB/CF) (from UniProt P09038 143-288) (ligand) | EC50, SRE-luc activation [10]: 1600 pM; EC50, SRE-luc activation by ligand [11]: 400 pM and 800 pM
